Reference: publication doi:10.1101/2021.01.14.426755 (bioRxiv, 2021)

B2: Ssl2 (natural protein)
chain: MTDVEGYQPKSKGKIFPDMGESFFSSDEDSPATDAEIDENYDDNRETSEGRGERDTGAMVTGLKKPRKKTKSSRHTAADSSMNQMDAKDKALLQDTNSDIPADFVPDSVSGMFRSHDFSYLRLRPDHASRPLWISPSDGRIILESFSPLAEQAQDFLVTIAEPISRPSHIHEYKITAYSLYAAVSVGLETDDIISVLDRLSKVPVAESIINFIKGATISYGKVKLVIKHNRYFVETTQADILQMLLNDSVIGPLRIDSDHQVQPPEDVLQQQLQQTAGKPATNVNPNDVEAVFSAVIGGDNEREEEDDDIDAVHSFEIANESVEVVKKRCQEIDYPVLEEYDFRNDHRNPDLDIDLKPSTQIRPYQEKSLSKMFGNGRARSGIIVLPCGAGKTLVGITAACTIKKSVIVLCTSSVSVMQWRQQFLQWCTLQPENCAVFTSDNKEMFQTESGLVVSTYSMVANTRNRSHDSQKVMDFLTGREWGFIILDEVHVVPAAMFRRVVSTIAAHAKLGLTATLVREDDKIGDLNFLIGPKLYEANWMELSQKGHIANVQCAEVWCPMTAEFYQEYLRETARKRMLLYIMNPTKFQACQFLIQYHERRGDKIIVFSDNVYALQEYALKMGKPFIYGSTPQQERMNILQNFQYNDQINTIFLSKVGDTSIDLPEATCLIQISSHYGSRRQEAQRLGRILRAKRRNDEGFNAFFYSLVSKDTQEMYYSTKRQAFLVDQGYAFKVITHLHGMENIPNLAYASPRERRELLQEVLLKNEEAAGIEVGDDADNSVGRGSNGHKRFKSKAVRGEGSLSGLAGGEDMAYMEYSTNKNKELKEHHPLIRKMYYKNLKK

What was measured:
Rad4-Rad23-Rad33 complex = target: T1, Rad4-Rad23-Rad33 complex (yeast, UniProt P14736 1-754; P32628 1-398; Q04231 1-177); test: cross-linking
T1 sequence 1: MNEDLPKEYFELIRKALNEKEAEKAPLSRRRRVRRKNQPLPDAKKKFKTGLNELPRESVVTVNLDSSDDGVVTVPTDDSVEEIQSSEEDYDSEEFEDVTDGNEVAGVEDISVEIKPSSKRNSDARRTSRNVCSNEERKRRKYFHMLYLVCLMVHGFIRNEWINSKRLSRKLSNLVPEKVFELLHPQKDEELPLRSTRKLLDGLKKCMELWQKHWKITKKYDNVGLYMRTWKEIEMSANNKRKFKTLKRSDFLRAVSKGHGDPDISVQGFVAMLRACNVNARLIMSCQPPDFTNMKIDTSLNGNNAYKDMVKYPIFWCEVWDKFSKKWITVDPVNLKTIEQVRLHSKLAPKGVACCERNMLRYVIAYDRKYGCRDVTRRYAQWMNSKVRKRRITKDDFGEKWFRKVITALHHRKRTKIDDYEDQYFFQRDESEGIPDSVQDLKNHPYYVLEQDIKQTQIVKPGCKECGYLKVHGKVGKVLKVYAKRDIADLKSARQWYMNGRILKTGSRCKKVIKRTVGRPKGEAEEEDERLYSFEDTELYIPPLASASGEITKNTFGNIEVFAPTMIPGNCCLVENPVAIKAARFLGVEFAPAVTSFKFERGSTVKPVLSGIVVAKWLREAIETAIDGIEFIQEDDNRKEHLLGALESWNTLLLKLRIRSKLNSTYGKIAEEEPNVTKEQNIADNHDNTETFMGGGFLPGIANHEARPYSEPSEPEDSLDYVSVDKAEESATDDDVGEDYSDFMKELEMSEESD
T1 sequence 2: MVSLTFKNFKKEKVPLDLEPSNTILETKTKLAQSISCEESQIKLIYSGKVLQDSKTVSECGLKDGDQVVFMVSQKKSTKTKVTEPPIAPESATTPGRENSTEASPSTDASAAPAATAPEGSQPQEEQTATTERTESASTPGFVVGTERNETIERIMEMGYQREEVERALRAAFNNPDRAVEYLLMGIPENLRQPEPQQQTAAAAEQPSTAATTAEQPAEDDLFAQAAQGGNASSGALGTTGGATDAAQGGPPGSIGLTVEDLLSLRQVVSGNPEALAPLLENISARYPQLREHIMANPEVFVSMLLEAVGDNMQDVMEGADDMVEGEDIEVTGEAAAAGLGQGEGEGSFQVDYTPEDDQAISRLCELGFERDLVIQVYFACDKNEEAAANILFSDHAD
T1 sequence 3: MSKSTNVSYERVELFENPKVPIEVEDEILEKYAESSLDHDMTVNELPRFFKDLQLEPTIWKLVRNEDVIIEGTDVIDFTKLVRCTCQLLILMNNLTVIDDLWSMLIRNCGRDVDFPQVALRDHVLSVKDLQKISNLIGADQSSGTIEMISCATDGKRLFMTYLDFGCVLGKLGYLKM

Rad3 = target: T2, Rad3 (yeast (endogenous, purified from yeast), UniProt P06839 1-778); test: cryo-EM structure
T2 sequence: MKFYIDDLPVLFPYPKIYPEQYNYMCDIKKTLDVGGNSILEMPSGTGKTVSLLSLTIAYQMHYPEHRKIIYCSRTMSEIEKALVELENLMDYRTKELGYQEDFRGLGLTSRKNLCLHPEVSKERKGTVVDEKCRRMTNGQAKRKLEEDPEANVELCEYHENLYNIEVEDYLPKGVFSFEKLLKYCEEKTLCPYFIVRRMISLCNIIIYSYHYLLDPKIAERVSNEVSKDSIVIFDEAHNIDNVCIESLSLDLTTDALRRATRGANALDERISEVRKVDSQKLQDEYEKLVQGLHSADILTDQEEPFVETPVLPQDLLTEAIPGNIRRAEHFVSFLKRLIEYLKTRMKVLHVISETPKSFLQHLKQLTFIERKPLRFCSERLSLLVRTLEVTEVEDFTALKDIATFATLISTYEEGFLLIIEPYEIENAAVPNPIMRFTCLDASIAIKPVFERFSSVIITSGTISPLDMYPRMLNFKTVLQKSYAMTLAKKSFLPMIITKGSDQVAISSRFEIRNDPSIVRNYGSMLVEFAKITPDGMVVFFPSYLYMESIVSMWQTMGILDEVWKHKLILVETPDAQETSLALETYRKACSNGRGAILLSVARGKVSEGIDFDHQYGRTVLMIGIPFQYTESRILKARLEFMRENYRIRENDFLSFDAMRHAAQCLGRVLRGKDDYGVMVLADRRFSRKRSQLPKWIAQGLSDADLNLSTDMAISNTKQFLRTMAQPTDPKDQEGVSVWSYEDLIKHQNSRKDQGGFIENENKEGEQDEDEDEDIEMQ

Rad4 = target: T3, Rad4 (yeast, UniProt P14736 1-754); test: cryo-EM structure
T3 sequence: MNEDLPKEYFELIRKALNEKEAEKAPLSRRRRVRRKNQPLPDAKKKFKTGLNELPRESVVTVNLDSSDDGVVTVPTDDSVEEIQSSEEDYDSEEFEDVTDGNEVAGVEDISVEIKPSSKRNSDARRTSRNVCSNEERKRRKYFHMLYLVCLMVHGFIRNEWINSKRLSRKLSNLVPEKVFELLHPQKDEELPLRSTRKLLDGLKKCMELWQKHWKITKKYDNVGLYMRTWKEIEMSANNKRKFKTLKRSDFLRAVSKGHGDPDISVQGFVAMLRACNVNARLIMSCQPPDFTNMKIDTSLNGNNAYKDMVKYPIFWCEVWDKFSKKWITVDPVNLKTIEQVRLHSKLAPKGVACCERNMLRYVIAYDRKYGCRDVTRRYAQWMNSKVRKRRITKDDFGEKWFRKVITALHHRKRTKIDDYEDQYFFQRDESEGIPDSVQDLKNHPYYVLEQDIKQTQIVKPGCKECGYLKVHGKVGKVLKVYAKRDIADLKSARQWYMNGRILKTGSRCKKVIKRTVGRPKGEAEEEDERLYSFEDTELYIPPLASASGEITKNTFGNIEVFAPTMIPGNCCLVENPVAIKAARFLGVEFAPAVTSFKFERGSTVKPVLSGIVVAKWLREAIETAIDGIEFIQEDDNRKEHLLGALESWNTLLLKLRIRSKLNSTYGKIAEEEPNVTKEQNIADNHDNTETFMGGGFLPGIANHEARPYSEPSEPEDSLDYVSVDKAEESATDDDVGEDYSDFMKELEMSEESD

Ssl2 = target: B2; test: cryo-EM structure

B1: Tfb1 (natural protein)
chain: MSHSGAAIFEKVSGIIAINEDVSPAELTWRSTDGDKVHTVVLSTIDKLQATPASSEKMMLRLIGKVDESKKRKDNEGNEVVPKPQRHMFSFNNRTVMDNIKMTLQQIISRYKDADIYEEKRRREESAQHTETPMSSSSVTAGTPTPHLDTPQLNNGAPLINTAKLDDSLSKEKLLTNLKLQQSLLKGNKVLMKVFQETVINAGLPPSEFWSTRIPLLRAFALSTSQKVGPYNVLSTIKPVASSENKVNVNLSREKILNIFENYPIVKKAYTDNVPKNFKEPEFWARFFSSKLFRKLRGEKIMQNDRGDVIIDRYLTLDQEFDRKDDDMLLHPVKKIIDLDGNIQDDPVVRGNRPDFTMQPGVDINGNSDGTVDILKGMNRLSEKMIMALKNEYSRTNLQNKSNITNDEEDEDNDERNELKIDDLNESYKTNYAIIHLKRNAHEKTTDNDAKSSADSIKNADLKVSNQQMLQQLSLVMDNLINKLDLNQVVPNNEVSNKINKRVITAIKINAKQAKHNNVNSALGSFVDNTSQANELEVKSTLPIDLLESCRMLHTTCCEFLKHFYIHFQSGEQKQASTVKKLYNHLKDCIEKLNELFQDVLNGDGESMSNTCTAYLKPVLNSITLATHKYDEYFNEYNNNSN
Question: Does B1 bind (Rad4-Rad23-Rad33 complex)?
Answer: Result: binds

Question: Does B1 bind (Rad3)?
Answer: Result: binds

Question: Does B1 bind (Rad4)?
Answer: Result: binds

Question: Does B2 bind (Rad4-Rad23-Rad33 complex)?
Answer: Result: binds

B3: Rad33 (natural protein)
chain: MSKSTNVSYERVELFENPKVPIEVEDEILEKYAESSLDHDMTVNELPRFFKDLQLEPTIWKLVRNEDVIIEGTDVIDFTKLVRCTCQLLILMNNLTVIDDLWSMLIRNCGRDVDFPQVALRDHVLSVKDLQKISNLIGADQSSGTIEMISCATDGKRLFMTYLDFGCVLGKLGYLKM
Question: What does the source list for B3?
Answer: binding result (Ssl2): binds; binding result (Rad4): binds

B4: Ssl1 (natural protein)
chain: MAPVVISESEEDEDRVAITRRTKRQVHFDGEGDDRVDQQQQQHSSSHRDRDKHVQRKKKKRLSNRNLQGSNGGYAWEDEIKRSWDLVKVDDEGDMASLVASIVEARKKRTAKKNITPYQRGIIRSLILTLDCSEAMLEKDLRPNRHAMIIQYAIDFVHEFFDQNPISQMGIIIMRNGLAQLVSQVSGNPQDHIDALKSIRKQEPKGNPSLQNALEMARGLLLPVPAHCTREVLIVFGSLSTTDPGDIHQTIDSLVSEKIRVKVLGLSAQVAICKELCKATNYGDESFYKILLDETHLKELFNEAVTPLPVNKINKGFTLVKMGFPTRIFEDTPTFCSCHSKLVYGGYFCPNCHSKVCSLPTVCPCCDLMLILSTHLARSYHHLMPLKTFAEVPTTEKFRSEDCFSCQSRFPILKNHKNGKLLTSSRYRCEDCKQEFCVDCDVFIHEILHNCPGCESKPVIT
Question: Does B4 bind (Rad3)?
Answer: Result: binds
